Measurements: US12127562B2, “Methods and compositions that increase pesticidal activity for FR901228” (PRO FARM GROUP, INC., priority 2020, dated 2024)
Values after ≈ are worked out from the molar mass of the structure shown. “Also recorded” adds a separate entry of the source. Where two headings read alike, the source gives them in different places.

B1: DnaK: Chaperone protein DnaK from Burkholderia rinojensis A396 (SEQ ID No. 2), His-tagged, overexpressed in E. coli (protein)
chain: MGKIIGIDLGTTNSCVAVMEGNQVKVIENSEGARTTPSIIAYMDDNEVLVGAPAKRQSVTNPRNTLFAVKRLIGRRFEEKEVQKDIGLMPYAIIKADNGDAWVEAHGDKLAPPQVSAEVLRKMKKTAEDYLGEPVTEAVITVPAYFNDSQRQATKDAGRIAGLEVKRIINEPTAAALAFGLDKAEKGDRKIAVYDLGGGTFDVSIIEIADVDGEMQFEVLSTNGDTFLGGEDFDQRIIDYIIGEFKKEQGVDLSKDVLALQRLKEAAEKAKIELSSGQQTEINLPYITADASGPKHLNLKITRAKLEALVEELVERTIEPCRIAIKDAGVKVSDIDDVILVGGQTRMPKVLEKVKEFFGKDPRRDVNPDEAVAVGAAIQGQVLSGDRKDVLLLDVTPLSLGIETLGGVMTKMINKNTTIPTKHAQVYSTADDNQGAVTIKVFQGEREMAAGNKLLGEFNLEGIPPAPRGVPQIEVTFDIDANGILHVGAKDKATGKENKITIKANSGLSEAEIDQMIKDAEANAAEDHKLRELADSRNQGDALVHSTKKAVAEYGDKLDAGEKDKIEAALKELEDVLKNTSADKAAIDAKIEALSTASQKLGEKMYADMQAQQAGAAGAAGAAEGAAHGGAQQADDVVDADFKEVKKD
modifications: His tag; Burkholderia rinojensis A396
B2: HtpG: Chaperone protein HtpG from Burkholderia rinojensis A396 (SEQ ID No. 1), His-tagged, overexpressed in E. coli (protein)
chain: MTQQTMSFQAEVKQLLHLMIHSLYSNKEIFLRELVSNASDAADKLRFEALENGALYENDPNLRIRIGFDPAARTLTIDDNGIGMSRDEAIANLGTIARSGTKEFFSKLSGDQQKDAALIGQFGVGFYSGFIVADRITVETRRAGLPASEGVRWESGGEGDFSIDAIERAARGTTITLHLREGEDELLSAHRLKSIVRKYSDHVALPILMQQEAWDAEKGEMVAKDEDETVNQASALWTRAKSEITDEQYQQFYQHLAHDHQNPLAWTHNRVEGRSEYTQLLYVPSHAPFDLWNRDYRGGLKLYVKRVFIMDDAEQLLPQYLRFVKGVVDSADLPLNVSREILQESRDVKAIREGVTKRALSMLEELANAEDDAGKEQYRTFWSAFGQVLKEGVGEDQANRERVAKLVRFASTHGGTDAQDVSLADYVARMKPEQTRIYYVTADTWQAATHSPHLEVFRKKGVEVLLLTDRVDEWMLSYLQEFDGKPLASVARGDLDLGALDDAEKKAQEETGEAFKPLVEKMKEALGDKAKDVRVTFRLTDSPSCLVADDHDMSGYLQRMLKAAGQSGPAMQPILEVNPEHPLVKQLQADSPEFGDWCHLLFDQALLAEGGALEDPASFVKRTNTLLLSRAA
modifications: His tag; Burkholderia rinojensis A396

System: Beet army worm (Spodoptera exigua)
Assay: Beet army worm diet overlay assay (insecticidal activity)
Type: in vivo
Details: for LC50: Spodoptera exigua, MW 540 concentration 50 μg/mL, protein concentration 0 mg/mL; for LC50 (μg/mL MW 540): Table 4, heated, MW 540 concentration 0 μg/mL, protein concentration 5 mg/mL; for insecticidal activity (in words): text summary, compared to MW 540 alone
Source text: The present inventors evaluated whether these two proteins can form conjugates with MW 540 and whether the conjugate has the same insecticidal activity as MW 540 alone. One skilled in the art knows that protein purification often uses polyhistidine-tags to assist with the concentration and removal of desired proteins from cellular material. The two protein sequences were cloned into an expression vector (pET26b(+)) and over-expressed in E. coli BL21 cells with a His tag added to the C-terminus of the sequence. In other words, His-tagged HtpG and DnaK from B. rinojensis A396 were overexpressed in E. coli and were purified by immobilized metal ion affinity chromatography.
After mixing MW 540 with HtpG and/or DnaK, heat was applied to the mixture to from disulfide bond conjugates and the end-product was evaluated and its insecticidal activity determined.
Table 1's numbers are expressed as protein concentrations as μg/mL. Subsequently, the insecticidal activity of the end products was evaluated using Beet army worm diet overlay assay known in the art.

Molecule | LC50 (read-out: LC50 (μg/mL MW 540), Table 2) [µg/mL] | LC50 (read-out: LC50 (μg/mL MW 540), Table 3) [µg/mL] | LC50 (read-out: LC50 (μg/mL MW 540), Table 4, unheated) [µg/mL] | LC50 (μg/mL MW 540) | insecticidal activity (in words) | insecticidal activity (in words) (listed as HtPG)
C/C=C1\NC(=O)[C@H]2CSSCC/C=C/[C@H](CC(=O)N[C@H](C(C)C)C(=O)N2)OC(=O)[C@H](C(C)C)NC1=O [MW 540, romidepsin, reference compound] | 0.27 (≈ 0.499 µM) | 0.35 (≈ 0.647 µM) | 0.43 (≈ 0.795 µM) |  |  | 
B1 |  |  |  | No Activity | does not exhibit insecticidal activity; also recorded: did not show insecticidal activity | 
B2 |  |  |  | No Activity | did not show insecticidal activity | does not exhibit insecticidal activity
